Results taken from IntAct's records for PubMed 31515488.

B1: Notch homolog 2 N-terminal-like protein A (Homo sapiens), Q7Z3S9 (parent)
chain: MCVTYHNGTGYCKCPEGFLGEYCQHRDPCEKNRCQNGGTCVAQAMLGKATCRCASGFTGEDCQYSTSHPCFVSRPCLNGGTCHMLSRDTYECTCQVGFTGKECQWTDACLSHPCANGSTCTTVANQFSCKCLTGFTGQKCETDVNECDIPGHCQHGGTCLNLPGSYQCQCLQGFTGQYCDSLYVPCAPSPCVNGGTCRQTGDFTFECNCLPETVRRGTELWERDREVWNGKEHDEN
partner: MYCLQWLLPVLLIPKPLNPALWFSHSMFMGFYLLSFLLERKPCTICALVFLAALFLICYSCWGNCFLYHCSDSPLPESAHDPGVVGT
B2: Ribosome quality control complex subunit TCF25 (Homo sapiens), Q9BQ70 (parent)
chain: MSRRALRRLRGEQRGQEPLGPGALHFDLRDDDDAEEEGPKRELGVRRPGGAGKEGVRVNNRFELINIDDLEDDPVVNGERSGCALTDAVAPGNKGRGQRGNTESKTDGDDTETVPSEQSHASGKLRKKKKKQKNKKSSTGEASENGLEDIDRILERIEDSTGLNRPGPAPLSSRKHVLYVEHRHLNPDTELKRYFGARAILGEQRPRQRQRVYPKCTWLTTPKSTWPRYSKPGLSMRLLESKKGLSFFAFEHSEEYQQAQHKFLVAVESMEPNNIVVLLQTSPYHVDSLLQLSDACRFQEDQEMARDLVERALYSMECAFHPLFSLTSGACRLDYRRPENRSFYLALYKQMSFLEKRGCPRTALEYCKLILSLEPDEDPLCMLLLIDHLALRARNYEYLIRLFQEWEAHRNLSQLPNFAFSVPLAYFLLSQQTDLPECEQSSARQKASLLIQQALTMFPGVLLPLLESCSVRPDASVSSHRFFGPNAEISQPPALSQLVNLYLGRSHFLWKEPATMSWLEENVHEVLQAVDAGDPAVEACENRRKVLYQRAPRNIHRHVILSEIKEAVAALPPDVTTQSVMGFDPLPPSDTIYSYVRPERLSPISHGNTIALFFRSLLPNYTMEGERPEEGVAGGLNRNQGLNRLMLAVRDMMANFHLNDLEAPHEDDAEGEGEWD
partner: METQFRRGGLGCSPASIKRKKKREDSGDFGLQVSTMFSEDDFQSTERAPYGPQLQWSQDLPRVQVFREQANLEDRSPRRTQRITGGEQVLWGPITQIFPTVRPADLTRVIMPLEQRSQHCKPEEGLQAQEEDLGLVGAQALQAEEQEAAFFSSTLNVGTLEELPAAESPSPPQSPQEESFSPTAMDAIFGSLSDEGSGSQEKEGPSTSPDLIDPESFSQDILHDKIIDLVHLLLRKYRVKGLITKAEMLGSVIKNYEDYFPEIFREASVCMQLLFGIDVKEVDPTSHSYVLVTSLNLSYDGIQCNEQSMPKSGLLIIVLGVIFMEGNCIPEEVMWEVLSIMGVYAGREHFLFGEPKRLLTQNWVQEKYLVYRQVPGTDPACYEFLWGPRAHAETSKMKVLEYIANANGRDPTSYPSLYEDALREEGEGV
B3: 14-3-3 protein theta (Homo sapiens), P27348 (parent)
chain: MEKTELIQKAKLAEQAERYDDMATCMKAVTEQGAELSNEERNLLSVAYKNVVGGRRSAWRVISSIEQKTDTSDKKLQLIKDYREKVESELRSICTTVLELLDKYLIANATNPESKVFYLKMKGDYFRYLAEVACGDDRKQTIDNSQGAYQEAFDISKKEMQPTHPIRLGLALNFSVFYYEILNNPELACTLAKTAFDEAIAELDTLNEDSYKDSTLIMQLLRDNLTLWTSDSAGEECDAAEGAEN
B4: L-fucose dehydrogenase (Homo sapiens), Q9BPX1 (parent)
chain: MATGTRYAGKVVVVTGGGRGIGAGIVRAFVNSGARVVICDKDESGGRALEQELPGAVFILCDVTQEDDVKTLVSETIRRFGRLDCVVNNAGHHPPPQRPEETSAQGFRQLLELNLLGTYTLTKLALPYLRKSQGNVINISSLVGAIGQAQAVPYVATKGAVTAMTKALALDESPYGVRVNCISPGNIWTPLWEELAALMPDPRATIREGMLAQPLGRMGQPAEVGAAAVFLASEANFCTGIELLVTGGAELGYGCKASRSTPVDAPDIPS
partner: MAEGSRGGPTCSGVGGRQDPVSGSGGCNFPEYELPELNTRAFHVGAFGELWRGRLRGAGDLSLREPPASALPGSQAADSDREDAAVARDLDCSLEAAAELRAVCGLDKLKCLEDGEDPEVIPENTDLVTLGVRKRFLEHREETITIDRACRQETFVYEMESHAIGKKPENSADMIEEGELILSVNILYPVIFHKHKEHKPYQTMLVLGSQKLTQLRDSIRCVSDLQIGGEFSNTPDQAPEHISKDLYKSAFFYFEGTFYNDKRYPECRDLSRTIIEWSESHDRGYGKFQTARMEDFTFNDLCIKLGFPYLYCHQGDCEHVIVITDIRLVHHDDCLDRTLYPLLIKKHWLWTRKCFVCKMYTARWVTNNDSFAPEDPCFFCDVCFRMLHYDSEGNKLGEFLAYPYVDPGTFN
B5: Gem-associated protein 7 (Homo sapiens), Q9H840 (parent)
chain: MQTPVNIPVPVLRLPRGPDGFSRGFAPDGRRAPLRPEVPEIQECPIAQESLESQEQRARAALRERYLRSLLAMVGHQVSFTLHEGVRVAAHFGATDLDVANFYVSQLQTPIGVQAEALLRCSDIISYTFKP
B6: Tuftelin-interacting protein 11 (Homo sapiens), Q9UBB9 (parent)
chain: MSLSHLYRDGEGRIDDDDDERENFEITDWDLQNEFNPNRQRHWQTKEEATYGVWAERDSDDERPSFGGKRARDYSAPVNFISAGLKKGAAEEAELEDSDDEEKPVKQDDFPKDFGPRKLKTGGNFKPSQKGFAGGTKSFMDFGSWERHTKGIGQKLLQKMGYVPGRGLGKNAQGIINPIEAKQRKGKGAVGAYGSERTTQSMQDFPVVDSEEEAEEEFQKELSQWRKDPSGSKKKPKYSYKTVEELKAKGRISKKLTAPQKELSQVKVIDMTGREQKVYYSYSQISHKHNVPDDGLPLQSQQLPQSGKEAKAPGFALPELEHNLQLLIDLTEQEIIQNDRQLQYERDMVVNLFHELEKMTEVLDHEERVISNLSKVLEMVEECERRMQPDCSNPLTLDECARIFETLQDKYYEEYRMSDRVDLAVAIVYPLMKEYFKEWDPLKDCTYGTEIISKWKSLLENDQLLSHGGQDLSADAFHRLIWEVWMPFVRNIVTQWQPRNCDPMVDFLDSWVHIIPVWILDNILDQLIFPKLQKEVENWNPLTDTVPIHSWIHPWLPLMQARLEPLYSPIRSKLSSALQKWHPSDSSAKLILQPWKDVFTPGSWEAFMVKNIVPKLGMCLGELVINPHQQHMDAFYWVIDWEGMISVSSLVGLLEKHFFPKWLQVLCSWLSNSPNYEEITKWYLGWKSMFSDQVLAHPSVKDKFNEALDIMNRAVSSNVGAYMQPGARENIAYLTHTERRKDFQYEAMQERREAENMAQRGIGVAASSVPMNFKDLIETKAEEHNIVFMPVIGKRHEGKQLYTFGRIVIYIDRGVVFVQGEKTWVPTSLQSLIDMAK
partner: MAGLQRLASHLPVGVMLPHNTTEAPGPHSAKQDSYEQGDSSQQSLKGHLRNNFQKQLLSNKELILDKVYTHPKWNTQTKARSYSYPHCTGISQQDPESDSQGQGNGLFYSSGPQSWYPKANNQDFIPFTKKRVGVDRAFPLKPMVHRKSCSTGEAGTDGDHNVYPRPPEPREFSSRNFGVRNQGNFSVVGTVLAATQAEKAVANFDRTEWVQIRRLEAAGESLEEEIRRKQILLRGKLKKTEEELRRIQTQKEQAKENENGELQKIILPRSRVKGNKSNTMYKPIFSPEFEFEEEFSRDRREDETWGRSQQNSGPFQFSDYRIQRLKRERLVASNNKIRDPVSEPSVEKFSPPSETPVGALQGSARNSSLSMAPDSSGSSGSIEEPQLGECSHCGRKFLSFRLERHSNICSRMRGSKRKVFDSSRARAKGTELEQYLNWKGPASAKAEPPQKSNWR

Variants of: B1
Settings: with blcap_human BLCAP

| Variant | effect of a mutation on the interaction |
| --- | --- |
| A115T | with no effect |
| R74Q | with no effect |

Variants of: B2
Settings: with magab_human MAGEA11, P43364

| Variant | effect of a mutation on the interaction |
| --- | --- |
| V526A | with no effect |

Variants of: B3
Settings: with tri42_human TRIM42, Q8IWZ5
Sequence of tri42_human TRIM42, Q8IWZ5 (Q8IWZ5 whole entry): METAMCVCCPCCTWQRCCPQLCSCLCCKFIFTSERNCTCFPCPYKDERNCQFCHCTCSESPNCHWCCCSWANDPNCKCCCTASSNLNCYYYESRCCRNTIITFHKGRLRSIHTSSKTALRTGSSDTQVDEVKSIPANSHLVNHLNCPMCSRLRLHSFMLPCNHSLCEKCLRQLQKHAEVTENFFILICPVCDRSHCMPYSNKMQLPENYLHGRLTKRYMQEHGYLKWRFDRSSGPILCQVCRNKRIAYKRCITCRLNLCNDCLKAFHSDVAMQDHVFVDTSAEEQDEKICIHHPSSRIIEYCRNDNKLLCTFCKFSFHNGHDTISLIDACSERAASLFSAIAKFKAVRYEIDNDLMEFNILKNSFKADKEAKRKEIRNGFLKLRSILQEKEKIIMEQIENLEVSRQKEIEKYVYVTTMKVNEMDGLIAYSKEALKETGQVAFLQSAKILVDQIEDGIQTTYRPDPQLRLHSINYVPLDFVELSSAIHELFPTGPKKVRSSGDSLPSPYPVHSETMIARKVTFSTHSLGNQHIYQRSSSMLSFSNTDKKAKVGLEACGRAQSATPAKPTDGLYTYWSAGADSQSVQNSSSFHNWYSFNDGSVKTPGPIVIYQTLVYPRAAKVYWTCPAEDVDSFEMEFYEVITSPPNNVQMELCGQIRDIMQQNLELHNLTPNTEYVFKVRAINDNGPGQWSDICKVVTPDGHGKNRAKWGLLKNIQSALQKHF

| Variant | effect of a mutation on the interaction |
| --- | --- |
| A152S | with no effect |

Variants of: B4
Settings: with snpc3_human SNAPC3, Q92966

| Variant | effect of a mutation on the interaction |
| --- | --- |
| R130W | disrupting interaction strength |
| G16W | disrupting interaction strength |
| N31D | with no effect |
| A56T | with no effect |

Variants of: B5
Settings: with gemi6_human GEMIN6, Q8WXD5
Sequence of gemi6_human GEMIN6, Q8WXD5 (Q8WXD5 whole entry): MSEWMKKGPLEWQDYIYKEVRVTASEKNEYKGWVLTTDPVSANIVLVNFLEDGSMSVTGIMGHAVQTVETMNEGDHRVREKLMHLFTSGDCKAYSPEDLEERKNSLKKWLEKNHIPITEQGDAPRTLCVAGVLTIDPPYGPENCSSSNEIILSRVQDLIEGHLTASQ

| Variant | effect of a mutation on the interaction |
| --- | --- |
| R68C | with no effect |

Variants of: B6
Settings: with zc21c_human ZC2HC1C

| Variant | effect of a mutation on the interaction |
| --- | --- |
| S688L | with no effect |
| R8Q | with no effect |
